Assay results reported in patent CN111995676A (UNIV WEIFANG MEDICAL, dated 2020).
Numbering of substitutions follows the chain as printed.

B1: 噬菌体展示的A4抗体 (单克隆抗体A4) (antibody, V domains shown)
VH: EVQLLESGGGLVQPGGSLRLSCAASGFTFSSYAMSWVRQAPGKGLEWVSYITNNGANTSYADSVKGRFTISRDNSKNTLYLQMNSLRAEDTAVYYCAKSYATFDYWGQGTLVTVSS
VL: DIQMTQSPSSLSASVGDRVTITCRASQSISSYLNWYQQKPGKAPKLLIYNASGLQSGVPSRFSGSGSGTDFTLTISSLQPEDFATYYCQQAAYYPTTFGQGTKVEIKR
notes: also called 噬菌体展示A4抗体; A4噬菌体
B2: 噬菌体展示的A2抗体 (单克隆抗体A2) (antibody, V domains shown)
VH: B1 VH with Y50G, T52D, N53A, N54S, A56Y, N57Y, S99D, Y100A, A101Y
VL: B1 VL with N50S, G53Y, A92S, Y93A, Y94D, T96D
B3: 噬菌体展示的C3抗体 (单克隆抗体C3) (antibody, V domains shown)
VH: EVQLLESGGGLVQPGGSLRLSCAASGFTFSSYAMSWVRQAPGKGLEWVSSIASSGYYTDYADSVKGRFTISRDNSKNTLYLQMNSLRAEDTAVYYCAKDADSFDYWGQGTLVTVSS
VL: B1 VL with N50A, G53Y, A92Y, Y93S, Y94A, T96S

molecular target: T1, 牛血清白蛋白BSA (bovine, UniProt P02769 25-607); experiment: phage ELISA, coated protein
T1 construct: also called BSA蛋白; 牛血清蛋白
T1 sequence (P02769 25-607 limits assumed): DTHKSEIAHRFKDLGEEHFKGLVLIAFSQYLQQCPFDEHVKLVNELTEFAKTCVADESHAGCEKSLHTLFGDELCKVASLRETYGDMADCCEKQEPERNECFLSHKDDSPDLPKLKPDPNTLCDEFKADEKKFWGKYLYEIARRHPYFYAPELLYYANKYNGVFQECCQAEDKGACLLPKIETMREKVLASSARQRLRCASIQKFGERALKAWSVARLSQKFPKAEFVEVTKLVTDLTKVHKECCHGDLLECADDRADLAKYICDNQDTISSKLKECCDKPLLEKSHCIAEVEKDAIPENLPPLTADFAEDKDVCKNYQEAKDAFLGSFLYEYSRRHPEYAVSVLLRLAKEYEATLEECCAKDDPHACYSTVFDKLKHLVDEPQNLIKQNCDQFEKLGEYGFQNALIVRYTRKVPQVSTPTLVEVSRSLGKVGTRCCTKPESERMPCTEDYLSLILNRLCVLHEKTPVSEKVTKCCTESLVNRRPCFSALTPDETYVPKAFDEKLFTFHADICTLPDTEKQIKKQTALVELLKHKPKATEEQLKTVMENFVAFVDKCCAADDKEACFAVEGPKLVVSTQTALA

| Binder | binding result |
| --- | --- |
| B1 | no binding (tested: 1μg/mL coated) |
| B2 | no binding (tested: 1μg/mL coated) |
| B3 | no binding (tested: 1μg/mL coated) |
